Laboratory results as given in a protein production outcome set (Wang et al. 2014).

Test: label from the status in PepcDB records

## MDHKKVAERVIKDVGRDNIIAGAHCATRLRLVLKDDSKVDQKALDNDPDVKGTFKTNGQYQVIIGPGDVNDVYDEFIKITGLKELSTDDLKKVAAEGQKKNPIMDFIKLLSDIFVPIIPALVAGGLLMALNNFLTSPGLFGPKSVVQMAPNVAGISSMIQVMSAAPFIFMPILVGMSAAKRFGANQFLGATIGMIMTTPGLGGATKFWDIFGLHVAQTNYQYQVIPVLVAVWVLSIFEKYFHKHLPSAVDFTFTPLLSIMITGFLTFTIIGPVFKGVSDAITNAIVWLYDTTGAFGMGVFGLSYSAIVTTGLHQSFPAVETQLLAAFAKNPASSGDFIFVTACMANVAQGAATFAVYFLTKNKKMKGLASSSGVSALLGITEPALFGVNLKYKFPFFCALIGSGVAAAFAGLMHVTAAALGSAGFLGFLSIYPRTIPMWVVSVAISFAVSFILTYVYGKSHLKEEVAEQDVPVNDATDYAEETQKAEKIGKEQLALKDEIIYSPVDGTPESLTKVNDQVFSAKLMGDGAAVIPSDGTIYAPVTGTVTIAYETKHAYGIKSDDGAEVLIHIGLDTVNLKGEHFESFVKQGQRVEKGDKLGSVDLDAVKKAGYDTTVMVVITNTANYANVQRITDAGDKHGDKLIAVTAHE
  protein production: failed

## MDIDASSCPELYARRAYGAEMTSQHQNTPSSEQIRRAPKVLLHDHLDGGLRPGTIVELARDAGYSGLPETDPDKLGIWFREAADSGSLERYLETFAHTCAVMQTRAALVRVAAECAEDLAADGVVYAEVRYAPEQHLEAGLSLEEVVEAVNEGFRAGERRAKEDGNRIRVGALLTAMRHAARALEIAELANRYRDAGVVGFDIAGAEAGFPPTRHLDAFEYLKRENNHFTIHAGEAFGLPSIWQALQWCGADRLGHGVRIIDDIQVREDGSVKLGRLASYVRDKRIPLELCPSSNLQTGAASSYADHPIGLLRRLHFRATVNTDNRLMSGTSMSREFEHLVDAFGYTLDDMAWFSVNAMKSAFIPFDERLAMINDVIKPGYAELKSEWLFKQTASTSSSAASEE
  protein production: not failed

## MDIEDLRTFVAVADAGGVSAAARRLGISKSIVSRRLFRIEAELGVQLLARTTRGAALTEAGITFRDHAARASAEIDTARETILPAGELHGRLRIAMPLTFGPTHFAPVLAEMARQHPQLHIHTSYSDRFVDLIAEGFDCAIRGAYLQDSNLIAKRVGPIHGKLVASPAYIKAHGSPEMVEQLVNHQALMQGTEAWQFMDGDRIVTVQPQGKFKADSATALAAAAAAGLGIAWLPDCITHAYLASGALVPIMTRYPVPPGAVYVVRPPSQHPARKVRVLTEMLTEYFKRTPELWGVDG
  protein production: failed

## MDIHIKPINTFAHAEMDALYTMIFHFYEEYDPTHVITKESINDTIIHLTNHPESGSIQFVYDAENALVGYVILIKYWSNEYQGYLLFIDELYIVPDKRSLGYGRTCITLIEKTFHDIQALALEVSPKNTRAQAFYLQLGFLPNKNKTFIKIKY
  protein production: failed

## MDIKEAGPFPVKKEQFRMTVNGQAWEVAAVPTTHLSDLLRKEFQLTGTKVSCGIGRCGACSILIDGKLANACMTMAYQADGHSITTIEGLQKEELDMCQTAFLEEGGFQCGYCTPGMIIALKALFRETPQPSDKDIEEGLAGNLCRCTGYGGIMRSACRIRRELNGGRRESGF
  protein production: failed

## MDIQGLLERLKPFIIIVLLFSVVFYIRAEASNIGGVPADAKKFYEDADGLPYFSEMDSYYNYRLTMNYLTKGIMGDTLVDGKPYDLHSYYPPGRPVDYPPLIVYVTSAAYRVLNFFGDFSLKEVAFWMGAFIGSLCVIPAYLFVRRITNDYGGFAAALIVGLVPTYVAHTYAGFFDTDMFNFVLPLFVFWFFTEGMLASSMRGKVGYALAAAVSILVFSAAWVGYIFYLAVLIVFVAAYLVISRYILGEKPAGEFEGKLDWLIHQRELFPLLILIIAGGVLVGVFGGFSSLAGAVGGLIGATQIQATAQTTAYPNVYVSVSELQVPEFITTGAGNIFLPGQNTIVGGVGGLLVFIIGVLGVGALVWKYRQPEVVVEESENRPRAGKKSKFMRKKRAAVASEEMRHRYLLYAVLMAVWLIMSGYAVTKGSRFIPTFAMPLGLSAGIFTGFLVEYLRVRFTTTSSLALIVFVAAVAMVMPFGVSVAVKLLAGVLAAGFIYSVKKPEIRAPFMMVLVVLAAVAPSVSGAHSITTSVAPGTDDGMWNSMQWVKKNTSRDTVVMSWWDFGHLFAVAADRPVTFDGGSQNTPRAYWIGKALTTSNETLSRGILTMLSTSGDLAYETLDNYTDDSGKTAEILTATLGLPREEARAVMTGRYGLSDKEADSVLRYSHPAKPKPFVLVLSSDMLGKAPWWTYFGTWDFKKKTGSRYGYYPSLASSKPQVVNNTTVIQTVNTMVDQNNVLGTIIEKKANTTNATIAVGNNMTVQKINPHRLTIIEGDLLVKNEVVDSDAQLSLIVIGSGNQYTTIIMNRELEDSVFTKLFLLGGFNQTSFKFLHQEPGVLLWTAA
  protein production: failed

## MDISLLKQVVQSTNKIALSTAVNNEADVKIVNFVWYEAQPDTLYFSSVKTSPALKVYDQNPDIAFITIPNDGTAGNPYLRAQHVKLQRSTKTMTDLLPQYLETVPNYQQVWDAIGSTLVVFELKLTDLFVDAGVGGEKQTLTFN
  protein production: not failed

## MDITSLINANVICLDLTSTSKEDILQEMVQILDDAGKLSNKTQFLSDVWAREEIGNTGFEDGIAIPHAKSSAVLTPSVAIGISRTGIDYGAEDGEPSDIFFMLASTDGDDNQHIEALAQISSRLIEDGFTNKLKKADSKEEILDLFTDIIQPNTESTDIENAPSQIEKSELTRKLGRTKEHLLFGTSHMIPFIVAGGVLLSLSVMISGQGAVPTEGILADIAQMGIAGLTLFTAVLGGYIAYSIADKPGLAPGMIGSWIAVQQYNTGFLGAIIIGFFAGFVVRSLKKIKLPESMASLGSIFIYPLVGTFLTCAAVMWVIGAPISNAMAALNEWLASMAGSGKIALGAILGAMAAFDMGGPINKVATLFAQTQVNTQPWLMGGVGIAICTPPLGMALATFLSPKKFKRDEREAGKAAGIMGMIGITEGAIPFAAADPARVIPAIVAGGIVGNITGFVFNVLNHAPWGGWIVLPVVDGKIGYIIGTLLGAFTTAAIVILLKKNAVEDDEHTQQKFTFESVKNEGEADVLAVTACPSGVAHTFLAAKSLEKAAHKLGIKIKVETQGADGINNRITPLDIKNAKLVIFAHDVAIKEPLRFKGMRTLDIATKDAMYSAEQLLNDNLTKHHKRFSKA
  protein production: failed

## MDKKEYSETFYHPYKPYDIQVQLMETVYRVLSEGKKIAILESPTGTGKTLSLICATMTWLRMNKADIFTRMETNIKTNEDDSENLSDDEPDWVIDTYRKSVLQEKVDLLNDYEKHLNEINTTSCKQLKTMCDLDKEHGRYKSVDPLRKKRKGARHLDVSLEEQDFIPRPYESDSENNDTSKSTRGGRISDKDYKLSELNSQIITLLDKIDGKVSRDPNNGDRFDVTNQNPVKIYYASRTYSQLGQFTSQLRLPSFPSSFRDKVPDEKVKYLPLASKKQLCINPKVMKWKTLEAINDACADLRHSKEGCIFYQNTNEWRHCPDTLALRDMIFSEIQDIEDLVPLGKSLGICPYYASREALPIAEVVTLPYQYLLSESTRSSLQINLENSIVIIDEAHNLIETINSIYSSQISLEDLKNCHKGIVTYFNKFKSRLNPGNRVNLLKLNSLLMTLIQFIVKNFKKIGQEIDPNDMFTGSNIDTLNIHKLLRYIKVSKIAYKIDTYNQALKEEESSKNENPIKETHKKSVSSQPLLFKVSQFLYCLTNLTSEGQFFFEKNYSIKYMLLEPSKPFESILNQAKCVVLAGGTMEPMSEFLSNLLPEVPSEDITTLSCNHVIPKENLQTYITNQPELEFTFEKRMSPSLVNNHLFQFFVDLSKAVPKKGGIVAFFPSYQYLAHVIQCWKQNDRFATLNNVRKIFYEAKDGDDILSGYSDSVAEGRGSLLLAIVGGKLSEGINFQDDLCRAVVMVGLPFPNIFSGELIVKRKHLAAKIMKSGGTEEEASRATKEFMENICMKAVNQSVGRAIRHANDYANIYLLDVRYNRPNFRKKLSRWVQDSINSEHTTHQVISSTRKFFSMRSLNSR
  protein production: failed

## MDKKPLNTLISATGLWMSRTGTIHKIKHHEVSRSKIYIEMACGDHLVVNNSRSSRTARALRHHKYRKTCKRCRVSDEDLNKFLTKANEDQTSVKVKVVSAPTRTKKAMPKSVARAPKPLENTEAAQAQPSGSKFSPAIPVSTQESVSVPASVSTSISSISTGATASALVKGNTNPITSMSAPVQASAPALTKSQTDRLEVLLNPKDEISLNSGKPFRELESELLSRRKKDLQQIYAEERENYLGKLEREITRFFVDRGFLEIKSPILIPLEYIERMGIDNDTELSKQIFRVDKNFCLRPMLAPNLYNYLRKLDRALPDPIKIFEIGPCYRKESDGKEHLEEFTMLNFCQMGSGCTRENLESIITDFLNHLGIDFKIVGDSCMVYGDTLDVMHGDLELSSAVVGPIPLDREWGIDKPWIGAGFGLERLLKVKHDFKNIKRAARSESYYNGISTNL
  protein production: not failed
